Results published in the supplement of paper PMC10567573.

B1: TRAF3IP2 (parent)
chain: KEHVPTWLQNTHVYSWPKNKKNIL

Variants of: B1
Experiment: protein stability index of a GFP-peptide fusion (GPS, HEK-293T) (PSI 1-6); higher = more stable
Settings: c terminus: a fixed tail appended
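Further: lentivirally expressed fusions sorted by FACS into six bins by GFP to DsRed ratio, PSI derived from sequencing read proportions per bin multiplied by bin number.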

| Variant | protein stability index |
| --- | --- |
| KEHVPTWLQNTHVYSWPKNKHNIL [K21H] | 2.17 |
| KEHVPTWLQNTYVYSWPKNKKNIL [H12Y] | 2.6 |
| KEHIPTWLQNTHVYSWPKNKKNIL [V4I] | 1.74 |
| KLHVPTWLQNTHVYSWPKNKKNIL [E2L] | 1.67 |
| KEHVPTWLQNTHVYSWPHNKKNIL [K18H] | 2.37 |
| KEHVPTWLVNTHVYSWPKNKKNIL [Q9V] | 2.65 |
| KEHVPTWLQNTCVYSWPKNKKNIL [H12C] | 2.46 |
| KEHVPTWLQNTHVYSWPKCKKNIL [N19C] | 2.98 |
| KEHVPTWLQNTHVYSWPKNKLNIL [K21L] | 2.18 |
| KEHVPTWLQNTHVYSSPKNKKNIL [W16S] | 3.08 |
| KEHVPTWLQNTEVYSWPKNKKNIL [H12E] | 3.38 |
| KEHVPTWLQNTQVYSWPKNKKNIL [H12Q] | 2.55 |
| KEHVPTWLQNTHVYSWPKNKKNIM [L24M] | 2.73 |
| KEHVPTWLQNTHVYSTPKNKKNIL [W16T] | 3.68 |
| KEHVPTWVQNTHVYSWPKNKKNIL [L8V] | 2.04 |
| KEHVPTWLQNTHVYSWEKNKKNIL [P17E] | 2.23 |
| KEHVPTWLKNTHVYSWPKNKKNIL [Q9K] | 1.87 |
| KEHVPTSLQNTHVYSWPKNKKNIL [W7S] | 3.31 |
| KEHVPSWLQNTHVYSWPKNKKNIL [T6S] | 2.88 |
| KEMVPTWLQNTHVYSWPKNKKNIL [H3M] | 2.46 |
| KEHVPTWIQNTHVYSWPKNKKNIL [L8I] | 2.54 |
| KEHVPTWLQNTDVYSWPKNKKNIL [H12D] | 2.75 |
| KEHVPRWLQNTHVYSWPKNKKNIL [T6R] | 2.23 |
| KEHVPTWLQNTHVYSWPKEKKNIL [N19E] | 2.72 |

| Variant | protein stability index |
| --- | --- |
| KEHVPTWLQNTFVYSWPKNKKNIL [H12F] | 2.13 |
| KEHVPTWLQNTHVYSWPKNKKNHL [I23H] | 3.19 |
| KEHVPTWLQNTHVYSWPKNKANIL [K21A] | 2.08 |
| KEHVPTWLQNTHVYSWPKNKKIIL [N22I] | 1.5 |
| KEHVPTWLQNTHVYSWPKFKKNIL [N19F] | 2.02 |
| KEHVPTWLQNTWVYSWPKNKKNIL [H12W] | 1.82 |
| KEHVHTWLQNTHVYSWPKNKKNIL [P5H] | 2.06 |
| KEHVPTWLQNTHVYSWPFNKKNIL [K18F] | 2.12 |
| KEHVPTWKQNTHVYSWPKNKKNIL [L8K] | 2.98 |
| AEHVPTWLQNTHVYSWPKNKKNIL [K1A] | 3.11 |
| KEHVPTWLQNTHVYSWPKNDKNIL [K20D] | 2.31 |
| KEHVPTWLQNTHVVSWPKNKKNIL [Y14V] | 2.69 |
| KEHVPTWAQNTHVYSWPKNKKNIL [L8A] | 3.33 |
| KEHVPTWLQNTHVYFWPKNKKNIL [S15F] | 1.97 |
| KETVPTWLQNTHVYSWPKNKKNIL [H3T] | 2.72 |
| KEHVPTQLQNTHVYSWPKNKKNIL [W7Q] | 3.74 |
| KEHVPTWLQNTHVYSWQKNKKNIL [P17Q] | 2.95 |
| KEHVPTWLQSTHVYSWPKNKKNIL [N10S] | 2.66 |
| EEHVPTWLQNTHVYSWPKNKKNIL [K1E] | 3.06 |
| KEHVPTWLQNTHVYSWPKNKKFIL [N22F] | 1.67 |
| TEHVPTWLQNTHVYSWPKNKKNIL [K1T] | 2.71 |
| KEHTPTWLQNTHVYSWPKNKKNIL [V4T] | 3.87 |
| IEHVPTWLQNTHVYSWPKNKKNIL [K1I] | 1.94 |
| KEHVPTWNQNTHVYSWPKNKKNIL [L8N] | 3.2 |

| Variant | protein stability index |
| --- | --- |
| KEHVPTWLQNTHVYSWPKNKKPIL [N22P] | 2.84 |
| KEHVPTWLQNTHVYSWPKNKCNIL [K21C] | 2.3 |
| KDHVPTWLQNTHVYSWPKNKKNIL [E2D] | 2.47 |
| KEHVPTWLYNTHVYSWPKNKKNIL [Q9Y] | 2.39 |
| KEHVPTWLQNTRVYSWPKNKKNIL [H12R] | 3.02 |
| KEHVPTTLQNTHVYSWPKNKKNIL [W7T] | 3.84 |
| KEEVPTWLQNTHVYSWPKNKKNIL [H3E] | 2.51 |
| KEHVPTWLQNTHVYSWPKNKKYIL [N22Y] | 1.56 |
| KEHGPTWLQNTHVYSWPKNKKNIL [V4G] | 2.81 |
| KEHVPTWLQNTHRYSWPKNKKNIL [V13R] | 3 |
| KEHVPTWLQNTHVYSWPKNKKNFL [I23F] | 2.69 |
| KEHVPTWLQNTHPYSWPKNKKNIL [V13P] | 3.07 |
| KEHVPTWLQNTHWYSWPKNKKNIL [V13W] | 2.46 |
| KEHVPTWLQNTHVYSWPKNVKNIL [K20V] | 1.99 |
| KEHWPTWLQNTHVYSWPKNKKNIL [V4W] | 1.93 |
| KEHLPTWLQNTHVYSWPKNKKNIL [V4L] | 3.21 |
| KEHVPTWLQNLHVYSWPKNKKNIL [T11L] | 2.44 |
| KEHVPTWLQNTHVYQWPKNKKNIL [S15Q] | 2.49 |
| KEHVPTWLQNTHVYSWIKNKKNIL [P17I] | 2.1 |
| KEHKPTWLQNTHVYSWPKNKKNIL [V4K] | 2.43 |
| KEHVPTWLCNTHVYSWPKNKKNIL [Q9C] | 2.25 |
| KEHVPTWLQNTHVYSWPKNKKNIK [L24K] | 3.49 |
| KEHVPTWLQNTHVYSWVKNKKNIL [P17V] | 1.98 |
| KEHVPPWLQNTHVYSWPKNKKNIL [T6P] | 3.07 |

| Variant | protein stability index |
| --- | --- |
| KEHVPTWLQNTHVYSWPKHKKNIL [N19H] | 2.19 |
| KIHVPTWLQNTHVYSWPKNKKNIL [E2I] | 1.58 |
| KEHVPTWLQNTHVYSWPKNTKNIL [K20T] | 2.96 |
| KEHVPIWLQNTHVYSWPKNKKNIL [T6I] | 2.21 |
| KEHVETWLQNTHVYSWPKNKKNIL [P5E] | 2.58 |
| KNHVPTWLQNTHVYSWPKNKKNIL [E2N] | 2.14 |
| KEHVPTWLQHTHVYSWPKNKKNIL [N10H] | 2.48 |
| KEHVPTWLQNTHVYSWPKNKKNVL [I23V] | 3.07 |
| YEHVPTWLQNTHVYSWPKNKKNIL [K1Y] | 1.93 |
| KGHVPTWLQNTHVYSWPKNKKNIL [E2G] | 1.93 |
| KEHVPTWLQNTHVYSWPKNKKNAL [I23A] | 2.89 |
| KEDVPTWLQNTHVYSWPKNKKNIL [H3D] | 2.85 |
| KEHVPTWLQNTHVYSLPKNKKNIL [W16L] | 3.02 |
| KEHVPTWLQNTHVYSGPKNKKNIL [W16G] | 3.55 |
| KEHVPTWLQNTHVYSWPKNKKNML [I23M] | 2.91 |
| KEHVPTWLQNTHVYSWPKNKKNEL [I23E] | 3.54 |
| KEHVPTWLQNTHVYSWPKNKKNTL [I23T] | 2.54 |
| KEHVPTWLQNTHVYPWPKNKKNIL [S15P] | 2.7 |
| KEKVPTWLQNTHVYSWPKNKKNIL [H3K] | 2.83 |
| KEHVPTWLQNTHVGSWPKNKKNIL [Y14G] | 3.05 |
| KEHVPKWLQNTHVYSWPKNKKNIL [T6K] | 2.73 |
| KEHVPTWLQNTHVYSWPKNFKNIL [K20F] | 1.59 |
